# Test results published in publication PMC2988976.
# Molecular target: Rev_(70-Dimer) (HIV) (UniProt P04618)
# Assay: SEC-MALS
substance,measurement,value
Rev_(70-Dimer) (from UniProt P04618 1-70) (domain or fragment),stoichiometry N,2
